Target: EGF receptor (UniProt P00533 25-645)
Assay: MST

B1: EGFL7 (natural protein, UniProt Q9UHF1 24-273, looked up)
chain: YRPGRRVCAVRAHGDPVSESFVQRVYQPFLTTCDGHRACSTYRTIYRTAYRRSPGLAPARPRYACCPGWKRTSGLPGACGAAICQPPCRNGGSCVQPGRCRCPAGWRGDTCQSDVDECSARRGGCPQRCVNTAGSYWCQCWEGHSLSADGTLCVPKGGPPRVAPNPTGVDSAMKEEVQRLQSRVDLLEEKLQLVLAPLHSLASQALEHGLPDPGSLLVHSFQQLGRIDSLSEQISFLEEQLGSCSCKKDS
Binder B1 has a Kd of 384 ± 76.5 nM.
